Key:
[1] = target: T1, Botryococcus braunii race B squalene synthase-like 1 (SSL-1), wild type, hexa-histidine tagged, SEQ ID NO: 2 (Botryococcus braunii, UniProt G0Y286); assay: Michaelis-Menten enzyme kinetics of the SSL-1 reaction (radiolabeled FPP to PSPP); assay type: biochemical
T1 construct: FPP substrate with or without NADPH
T1 sequence (G0Y286 1-403): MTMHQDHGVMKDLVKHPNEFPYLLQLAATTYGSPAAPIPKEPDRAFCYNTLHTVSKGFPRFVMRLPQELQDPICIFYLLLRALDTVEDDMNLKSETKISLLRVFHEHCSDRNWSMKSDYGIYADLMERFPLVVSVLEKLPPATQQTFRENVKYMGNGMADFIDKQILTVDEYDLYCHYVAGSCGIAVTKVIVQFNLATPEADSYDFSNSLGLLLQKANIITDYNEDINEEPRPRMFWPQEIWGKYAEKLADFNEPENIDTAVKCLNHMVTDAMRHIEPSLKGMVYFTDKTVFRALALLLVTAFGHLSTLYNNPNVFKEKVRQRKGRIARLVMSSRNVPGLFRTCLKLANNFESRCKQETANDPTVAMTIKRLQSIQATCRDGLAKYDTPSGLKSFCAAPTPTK
Protocol: FIG. 5 depicts Michaelis-Menten enzyme kinetics of the SSL-1 reaction. Enzyme assays (50 μl) were set up as described in the methods section with purified SSL-1 (0.2-1.0 μg), 0.1% triton X-100, ±2 mM NADPH, and the indicated concentration of ^3H-FPP. Assays were incubated for 15 min at 37° C. and stopped by addition of 50 μl 0.5 M EDTA. The reactions were then extracted 3× with 200 μl water saturated 1-butanol and pooled in a 4 ml glass screw cap vial. The butanol was evaporated with a stream of nitrogen gas and the white residue was resuspended in 2 ml of acid phosphatase solution (20% 1-propanol (v/v), 100 mM sodium acetate pH 4.7, 0.1% Triton X-100, 10 units sweet potato acid phosphatase) and incubated overnight (12-16 h) in a 28° C. shaker. […] The standards were visualized with iodine vapors and the zones corresponding to FOH (rf=0.65) and PSOH (rf=0.45) were scraped and analyzed by scintillation spectroscopy. […] The data was analyzed using the SigmaPlot Enzyme Kinetics 1.3 software. […]
Purification of the bacterial expressed enzymes was afforded by the amino-terminal hexa-histidine tag using His-Select Cobalt affinity gel (Sigma) columns according the manufacturer's recommendations. Recovery of proteins with the expected molecular sizes was determined by SDS-PAGE. […]

[2] = Purified bacterial-expressed enzymes incubated with FPP, products by GC-MS or TLC/scintillation counting; assay type: biochemical; details: FPP as substrate, enzyme assayed alone
From the text: (§1) FIG. 6 depicts the functional characterization of the squalene synthase-like genes of Botryococcus braunii race B. The squalene synthase-like genes, SSL-1, SSL-2 and SSL-3, were expressed in yeast separately (SSL-1 (B), SSL-2(C) or SSL-3(D)) or in combinations (SSL-1+SSL-2(E), SSL-1+SSL-3(F)) and the hexane extractable metabolites profiled by GC-MS. The chemical profile of yeast not engineered with any gene constructs serves as the background control (A). […] Data (J) represents mean±S.E.M. obtained from three independent experiments (n=3). The chromatograms (A-I) are also annotated for the elution behavior of botryococcene (1), squalene (2), presqualene alcohol (3) and bisfarnesyl ether (4).
The recombinant vectors were transformed into E. coli strain BL21(DE3) according to the manufacturer's recommendations (Novagen). The selected lines were grown with kanamycin selection at 37° C. with vigorous shaking until the cultures reached an optical density of ˜0.8 (OD600 nm), then expression of the corresponding SSL gene induced by addition of 0.5 mM isopropylthio-β-D-galactoside (IPTG) and the cultures incubate for an additional 3 to 20 h with shaking at room temperature. One hundred ml of the culture was subject to centrifugation at 4,000 g for 10 min, the pelleted cells resuspended in 10 ml of lysis buffer containing 50 mM NaH2PO4, pH 7.8, 300 mM NaCl, 10 mM imidazole, 1 mM MgCl2, 1 mM PMSF, 1% glycerol (v/v), then sonicated 4× for 10 sec with a microprobe sonicator at 60% maximum power. The samples were cooled on ice for 2 min between sonication treatments. The sonicate was centrifuged at 16,000 g for 10 min at 4° C. and the supernatant used for purification of the hexa-histidine tagged enzymes.
Purification of the bacterial expressed enzymes was afforded by the amino-terminal hexa-histidine tag using His-Select Cobalt affinity gel (Sigma) columns according the manufacturer's recommendations. Recovery of proteins with the expected molecular sizes was determined by SDS-PAGE. The purified protein fractions were concentrated using Amicon Ultra (0.5 ml, 10K) centrifugation filter units and stored in 300 mM NaCl, 20 mM Tris-HCl pH 7.5, 5 mM dithiothreitol, 2 mM MgCL2, 50% glycerol (v/v) at −20° C. for 2-3 weeks without noticeable loss of activity.
Typical enzyme assays were initiated by mixing aliquots of purified enzyme with 50 mM Mops, pH 7.3, 20 mM MgCl2, 2.5 mM 2-mercaptoethanol, 10 μM [1-^3H]-FPP (˜2×10^5 dpm total), and 2 mM NADPH in total reaction volume of 50 μl. Reactions were incubated at 37° C. for 1 h and then extracted with 100 μl n-hexane or 100 ul MTBE. Forty μl of the n-hexane or MTBE extract was then spotted onto silica TLC plates with authentic standards of botryococcene and squalene and developed with n-hexane, or standards of bisfarnesyl ether and developed with n-hexane:MTBE, 25:1. The standards were visualized with iodine vapors and TLC zones corresponding to the standards were scrapped and analyzed by scintillation spectrometry. If Botryococcus lysate was added to enzyme assays, typically 5 μl of lysate (corresponding to 10 μg total protein) prepared from B. braunii cells according to Okada et al. (1) was added. […] Extracts were resuspended in 50 μl hexane and an aliquot analyzed by GC-MS with a Varian CP-3800 GC coupled to a Varian Saturn 2200 MS/MS (Varian Medical Systems) using a Supelco SLB-5 ms fused silica capillary column (30 m×0.25 mm×0.25 μM film thickness, Supelco). […]

TN7 yeast line = assay: Expression of SSL genes in TN7 yeast line, hexane extractable metabolites by GC-MS; assay type: cell-based; details: gene expressed separately in yeast
From the text: as §1
FIG. 10 includes a comparison of botryococcene production in yeast engineered with different configurations of SSL-1 and SSL-3. Yeast line TN7 was engineered with the SSL-1 and SSL-3 genes on separate plasmids (squares), with gene fusions (SSL-1 fused to SSL-3 via a triplet repeat of GGSG (triangles), or vice versa (diamonds)), or with 63 or 71 amino acids of the carboxy terminus of the Botryococcus squalene synthase, sequences containing a membrane spanning domain, appended to the carboxy termini of the SSL-1 and SSL-3 enzymes, respectively (circles). The data represents mean±S.E.M.
The various recombinant yeast expression vectors were introduced into the TN7 yeast line via lithium acetate transformation, followed by selection for uracil and leucine auoxtrophic growth (Takahashi, et al. (2007)). […] Individual colonies of TN7 and the various TN7-transformants were subsequently grown in 25 ml of YPDE (nutrient rich) or Yeast Synthetic Drop-out medium (selection) for the indicated time at 25° C. before analyzing the cultures for production of novel triterpene components. In brief, 1 ml aliquots of the culture were combined with 1 ml of acetone, vigorously mixed, and incubated at room temperature for 10 min. One ml of hexane was added and mixed vigorously for 60 sec. […] The dried extract was resuspended in 50-500 μl of n-hexane and a 1 μl aliquot analyzed by GC-MS as described above. […]

[3] = Secondary enzyme assays of SSL-3 or SSL-2 with PSPP versus FPP; assay type: biochemical; details: 2 mM NADPH, 1 μg enzyme, 37° C., 15 min
Protocol: Two primary enzyme assays (500 μl) were set up with 20 μg of purified SSL-1 or Nicotiana benthamiana squalene synthase (TSS) plus 40 μM ^3H-FPP. The assays were incubated at 37° C. for 1 h, then extracted 3× with 500 μl water saturated 1-butanol, pooled, and evaporated under a stream of nitrogen gas. The white residue was resuspended in 50 μl of 25 mM NH4HCO3 in 70% ethanol (v/v). An aliquot of the resuspension was analyzed by the acid phosphatase assay (described in supplemental FIG. 4) and shown to consist of 45% and 40% PSPP for the SSL-1 and TSS primary incubations, respectively. […] It was calculated that 1 μl of each resuspension contained ˜150 pmoles of 3H-PSPP. […] For comparison, enzyme assays were also set up containing 3 μM ^3H-FPP, 2 mM NADPH and either 1 μg each of SSL-1 plus SSL-3, or SSL-1 plus SSL-2. Additional control assays contained 5 μM ^3H-FPP, 2 mM NADPH, and either 1 μg of SSL-3 or SSL-2. The reactions were incubated at 37° C. for 15 min, stopped by addition of 50 μl 0.5 M EDTA, and extracted with 100 μl n-hexane. Aliquots of the hexane extracts, along with standards of squalene and botryococcene, were separated by silica TLC using n-hexane as the developing solvent. Standards were visualized with iodine vapors and the corresponding zones were analyzed by scintillation spectroscopy. […]

NC(=O)C1=CN([C@@H]2O[C@H](COP(=O)(O)OP(=O)(O)OC[C@H]3O[C@@H](n4cnc5c(N)ncnc54)[C@H](OP(=O)(O)O)[C@@H]3O)[C@@H](O)[C@H]2O)C=CC1 [NADPH]
stimulation of activity by NADPH addition ([1]; NADPH addition, radiolabeled FPP substrate): no stimulation | effect of NADPH addition on enzyme activity (difference) ([1]; ±2 mM NADPH, 3H-FPP substrate, 15 min at 37° C.): less than 4%

B1: SSL-3: Botryococcus braunii race B squalene synthase-like 3 enzyme; converts PSPP to botryococcene (protein)
chain: MKLREVLQHPGEIIPLLQMMVMAYRRKRKPQDPNLAWCWETLIKVSRSYVLVIQQLPEVLQDPICVNYLVLRGLDTLQDDMAIPAEKRVPLLLDYYNHIGDITWKPPCGYGQYVELIEEYPRVTKEFLKLNKQDQQFITDMCMRLGAEMTVFLKRDVLTVPDLDLYAFTNNGPVAICLTKLWVDRKFADPKLLDREDLSGHMAMFLGKINVIRDIKEDVLEDPPRIWWPKEIWGKYLKDLRDIIKPEYQKEALACLNDILTDALRHIEPCLQYMEMVWDEGVFKFCAVPELMSLATISVCYNNPKVFTGVVKMRRGETAKLFLSVTNMPALYKSFSAIAEEMEAKCVREDPNFALTVKRLQDVQALCKAGLAKSNGKVSAKGA
squalene or botryococcene biosynthesis by purified enzyme in vitro [2]: neither bacterial-expressed, purified enzymes exhibited any botryococcene biosynthesis | products accumulating in yeast (TN7 yeast line): did not cause the accumulation of any distinct products | biosynthesis from PSPP versus FPP [3]: efficiently catalyze the biosynthesis of squalene and botryococcene, respectively, from PSPP but not FPP

— US8822187B1, “Polypeptides, nucleic acid molecules, and methods for synthesis of triterpenes” (University of Kentucky Research Foundation, priority 2011, dated 2014)
